Measurements taken from patent US20230227568A1 (Pieris, published 2023).

Key:
[1] = molecular target: T1, cynomolgus 4-1BB on CHO cells (cynomolgus, UniProt A9YYE7 24-254); test: flow cytometry, Flp-In-CHO::cyno4-1BB cells
T1 construct: also called Flp-In-CHO::cyno4-1BB; cynomolgus 4-1BB-expressing CHO cells
Summary of the method: (§1)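 Flp-In CHO cells stably expressing human or cynomolgus 4-1BB (mock-transfected control), 5×10⁴/well, incubated 1 h on ice with dilution series of test proteins. Binding detected with rabbit anti-NGAL or Alexa 488 anti-human IgG (30 min, ice); geometric mean fluorescence fitted by four-parameter nonlinear regression.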

[2] = molecular target: T2, hu4-1BB-Fc (R&D Systems) (human, UniProt Q07011 24-186); test: SPR (Biacore 8K), hu4-1BB-Fc captured by anti-human IgG Fc; apparent value, 1:1 fit
T2 construct: Bought; also called human 4-1BB; not shown: human IgG Fc of the bought fusion
Summary of the method: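 hu4-1BB-Fc at 0.3 μg/mL captured for 180 s on amine-coupled anti-human IgG Fc (CM5 chip). Analyte contact 180 s, dissociation 1200 s or 3000 s, 30 μL/min, 25° C. Double-referenced sensorgrams fitted to a 1:1 binding model.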

[3] = molecular target: T3, human 4-1BB on cells (human, UniProt Q07011 24-255); test: flow cytometry, Flp-In-CHO::hu4-1BB cells
T3 construct: whole, on cells; Stably transfected CHO cells (flow cytometry) and bought Jurkat reporter cells (bioassay); also called Flp-In-CHO::hu4-1BB; human 4-1BB-expressing CHO cells
Summary of the method: as §1

[4] = molecular target: T4, recombinant hu4-1BB-His (human 4-1BB with a C-terminal polyhistidine tag, R&D Systems) (human, UniProt Q07011 24-186); test: ELISA, hu4-1BB-His coated, detection anti-NGAL-HRP
T4 construct: Bought; not shown: C-terminal polyhistidine tag
Summary of the method: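 Plates coated with hu4-1BB-His (1 μg/mL, overnight, 4° C) and blocked with 2% BSA; test proteins at 100 to 0.002 nM bound 1 h at room temperature. Detection by anti-NGAL-HRP with fluorogenic substrate; EC₅₀ from 1:1 sigmoidal fit, slope fixed to one.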

[5] = molecular target: T3, human 4-1BB on cells; test: flow cytometry on CHO cells stably transfected with human 4-1BB, anti-NGAL detection, GeoMean BL1-H
Experimental: (§2) 5×10⁴ cells per well were incubated for 1 h in ice-cold PBS containing 5% fetal calf serum (PBS-FCS). A dilution series of the tested multimeric proteins (SEQ ID NOs: 38-44 and 46-55), the 4-1BB-targeting lipocalin mutein as included in the multimeric proteins (SEQ ID NO: 64) or the GPC3-targeting lipocalin SEQ ID NO: 90 were added to the cells and incubated for 1 h on ice. Cells were washed twice with PBS and then incubated with a rabbit anti-NGAL or a goat anti-human IgG labeled with fluorescent dye Alexa 488 for 30 min on ice. Human IgG4 isotype (SEQ ID NOs: 29 and 30) and lipocalin mutein SEQ ID NO: 8 were tested as a negative control. Cells were subsequently washed and analyzed using iQue Flow cytometer (Intellicyte Screener). Mean geometric fluorescent signals were plotted and fitted with Graphpad software using nonlinear regression (shared bottom, four parameters, variable slope).
Target-specific binding of hexavalent trimeric proteins to human 4-1BB-, OX40- or PD-L1-expressing cells was assessed by flow cytometry as described in Example 5, using CHO cells stably transfected with human 4-1BB, human OX40 or human PD-L1 (Flp-In system; Life Technologies).

[6] = molecular target: T3, human 4-1BB on cells; test: cell-based or functional assay
[7] = molecular target: T5, human GPC3 on HepG2 cells (human, UniProt P51654 25-554); test: flow cytometry, HepG2 cells
T5 construct: whole, on cells; Endogenous GPC3 of the tumor cell line; also called GPC3-positive tumor cell line HepG2; human GPC3-expressing HepG2 cells
Experimental: GPC3-positive tumor cell line HepG2 was cultured in Dulbecco's Modified Eagle's Medium ([…], Pan Biotech) supplemented with 10% Fetal Calf Serum (Sigma-Aldrich) and in cell culture flasks according to manufacturer's instruction (37° C., 5% CO₂ atmosphere).
as §2

[8] = molecular target: T6, huGPC3-His (human GPC3 with C-terminal polyhistidine tag, R&D Systems) (human, UniProt P51654 25-559, limits assumed); test: ELISA, huGPC3-His coated, detection anti-NGAL-HRP
T6 construct: Bought; not shown: C-terminal polyhistidine tag
Experimental: Recombinant hu4-1BB-His (human 4-1BB with a C-terminal polyhistidine tag, R&D Systems) at the concentration of 1 μg/mL in PBS was coated overnight on microtiter plates at 4° C. After washing with PBS-0.05% T (PBS supplemented with 0.05% (v/v) Tween 20), the plates were blocked with 2% BSA (w/v) in PBS-0.1% T (PBS supplemented with 0.1% (v/v) Tween 20) for 1 h at room temperature. After washing with 100 μL PBS-0.05% T five times, exemplary multimeric proteins (SEQ ID NOs: 38-44 and 46-53) or 4-1BB-specific lipocalin mutein as included in the multimeric protein (SEQ ID NO: 64) at different concentrations, ranging from 100 to 0.002 nM, were added to the wells and incubated for 1 h at room temperature, followed by another wash step. Bound molecules under study were detected by incubation with 1:1000 diluted anti-NGAL-HRP in PBS-0.1% T-2% BSA. After an additional wash step, fluorogenic HRP substrate (QuantaBlu, Thermo) was added to each well and the fluorescence intensity was detected using a fluorescence microplate reader.
The same ELISA setup was also employed to determine the binding potency of exemplary bispecific multimeric proteins (SEQ ID NO: 54 and SEQ ID NO: 55) to GPC3, where huGPC3-His (human GPC3 with C-terminal polyhistidine tag, R&D Systems) was instead coated on a microtiter plate. The testing agents were similarly titrated and bound agents detected.

[9] = molecular target: T6, huGPC3-His (human GPC3 with C-terminal …); test: dual-binding ELISA, huGPC3-His coated, detection with biotinylated hu4-1BB-His and Extravidin-HRP
Experimental: Recombinant huGPC3-His (human GPC3 with C-terminal polyhistidine tag, R&D Systems) at the concentration of 1 μg/mL in PBS was coated overnight on microtiter plates at 4° C. After washing with PBS-0.05% T (PBS supplemented with 0.05% (v/v) Tween 20), the plates were blocked with 2% BSA (w/v) in PBS-0.1% T (PBS supplemented with 0.1% (v/v) Tween 20) for 1 h at room temperature. After washing with 100 μL PBS-0.05% T five times, exemplary multimeric proteins (SEQ ID NOs: 54 and 55) at different concentrations, ranging from 100 to 0.002 nM, were added to the wells and incubated for 1 h at room temperature, followed by another wash step. Bound molecules under study were detected by incubation with 1 μg/mL recombinant hu4-1BB-His (biotinylated human 4-1BB with C-terminal polyhistidine tag, Sino Biological) in PBS-0.1% T-2% BSA for 1 h. This step was followed by a further wash step and incubation with 1:5000 diluted Extravidin-HRP in PBS-0.1% T-2% BSA. After an additional wash step, fluorogenic HRP substrate (QuantaBlu, Thermo) was added to each well and the fluorescence intensity was detected using a fluorescence microplate reader.

T3 sequence (Q07011 24-255): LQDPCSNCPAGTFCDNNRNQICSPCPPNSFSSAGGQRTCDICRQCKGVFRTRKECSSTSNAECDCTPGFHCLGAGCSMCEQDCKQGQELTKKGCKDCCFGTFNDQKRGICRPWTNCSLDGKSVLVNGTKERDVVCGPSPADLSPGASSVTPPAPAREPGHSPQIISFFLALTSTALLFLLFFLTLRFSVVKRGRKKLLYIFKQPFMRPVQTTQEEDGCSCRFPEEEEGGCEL
T6 sequence (P51654 25-559 limits assumed): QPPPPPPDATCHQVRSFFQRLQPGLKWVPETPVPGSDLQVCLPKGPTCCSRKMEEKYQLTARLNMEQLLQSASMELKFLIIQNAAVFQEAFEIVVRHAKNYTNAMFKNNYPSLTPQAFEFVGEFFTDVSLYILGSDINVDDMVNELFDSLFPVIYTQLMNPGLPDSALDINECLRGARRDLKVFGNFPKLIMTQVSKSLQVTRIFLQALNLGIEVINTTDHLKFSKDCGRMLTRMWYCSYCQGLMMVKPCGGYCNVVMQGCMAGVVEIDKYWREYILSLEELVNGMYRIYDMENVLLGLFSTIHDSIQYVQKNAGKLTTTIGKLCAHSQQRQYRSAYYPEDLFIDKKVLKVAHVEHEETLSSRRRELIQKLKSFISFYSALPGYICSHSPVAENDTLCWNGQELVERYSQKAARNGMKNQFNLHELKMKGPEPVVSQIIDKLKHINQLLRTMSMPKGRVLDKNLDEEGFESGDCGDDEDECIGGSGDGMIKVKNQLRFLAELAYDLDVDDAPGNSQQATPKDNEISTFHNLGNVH
T1 sequence (A9YYE7 entry or part of it limits assumed): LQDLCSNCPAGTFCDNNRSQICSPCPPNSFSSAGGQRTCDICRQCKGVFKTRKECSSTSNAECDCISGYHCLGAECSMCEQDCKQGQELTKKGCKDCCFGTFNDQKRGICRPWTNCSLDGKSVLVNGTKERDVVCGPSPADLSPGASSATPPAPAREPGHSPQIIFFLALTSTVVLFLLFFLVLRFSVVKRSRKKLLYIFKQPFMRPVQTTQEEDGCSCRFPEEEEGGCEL
T5 sequence (P51654 25-554 limits assumed): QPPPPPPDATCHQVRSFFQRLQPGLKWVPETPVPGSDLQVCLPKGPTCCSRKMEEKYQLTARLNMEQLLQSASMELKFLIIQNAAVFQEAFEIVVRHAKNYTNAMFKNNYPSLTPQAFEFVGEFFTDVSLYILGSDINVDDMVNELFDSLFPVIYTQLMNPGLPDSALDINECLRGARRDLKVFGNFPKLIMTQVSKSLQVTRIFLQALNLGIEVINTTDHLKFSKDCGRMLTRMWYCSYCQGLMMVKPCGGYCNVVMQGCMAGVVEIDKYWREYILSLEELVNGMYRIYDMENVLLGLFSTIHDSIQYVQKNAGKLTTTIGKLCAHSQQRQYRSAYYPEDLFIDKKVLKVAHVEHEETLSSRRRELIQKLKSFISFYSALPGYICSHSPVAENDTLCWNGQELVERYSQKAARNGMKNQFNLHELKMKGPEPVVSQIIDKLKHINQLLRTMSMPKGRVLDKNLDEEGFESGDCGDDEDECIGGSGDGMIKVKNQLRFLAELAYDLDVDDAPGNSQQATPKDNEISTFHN

| EC50 [1] [nM] | Kd [2] [nM] | koff [2] [s⁻¹] | kon [2] [M⁻¹ s⁻¹] | EC50 [3] [nM] | EC50 [4] [nM] | EC50 (read off the curve) [5] [nM] | EC50 [nM], 4-1BB bioassay (NFκB-luc2/4-1BB Jurkat luminescence), with HepG2 cells [6] [nM] | EC50 [7] [nM] | EC50 [8] [nM] | EC50 [9] [nM] | Binder |
| --- | --- | --- | --- | --- | --- | --- | --- | --- | --- | --- | --- |
| 3.36 | 0.24 | 2.19e-05 | 90400 | 1.5 | 0.12 | ~2 | 1 | – | – | – | multimeric protein SEQ ID NO: 52 (designed binder) QDSTSDLIPAPPLSKVPLQQNFQDNQFHGKWYVVGQAGNIRLREDKDPIKMMATIYELKEDKSYDVTMVKFDDKKCMYDIWTFVPGSQPGEFTLGKIKSFPGHTSSLVRVVSTNYNQHAMVFFKFVFQNREEFYITLYGRTKELTSELKENFIRFSKSLGLPENHIVFPVPIDQCIDGGGGGSGGGGSGGGGSQDSTSDLIPAPPLSKVPLQQNFQDNQFHGKWYVVGQAGNIRLREDKDPIKMMATIYELKEDKSYDVTMVKFDDKKCMYDIWTFVPGSQPGEFTLGKIKSFPGHTSSLVRVVSTNYNQHAMVFFKFVFQNREEFYITLYGRTKELTSELKENFIRFSKSLGLPENHIVFPVPIDQCIDGGGGGSGGGGSGGGGSGVRLWATRQAMLGQVHEVPEGWLIFVAEQEELYVRVQNGFRKVQLEARTPLGGSGGAPEQKLISEEDLGSHHHHHHHHHH |
| 5.99 | 0.26 | 1.99e-05 | 77900 | 5.49 | – | – | 0.38 | 3.07 | 0.15 | 0.63 | bispecific multimeric protein SEQ ID NO: 54 (designed binder) QVQLVQSGAEVKKPGASVKVSCKASGYTFTDYEMHWVRQAPGQGLEWMGALDPKTGDTAYSQKFKGRVTLTADKSTSTAYMELSSLTSEDTAVYYCTRFYSYTYWGQGTLVTLVSSGGGGSGGGGSGGGGSGGGGSDVVMTQSPLSLPVTPGEPASISCRSSQSLVHSNRNTYLHWYLQKPGQSPQLLIYKVSNRFSGVPDRFSGSGSGTDFTLKISRVEAEDVGVYYCSQNTHVPPTFGQGTKLEIKGGGGSGGGGSGGGGSGVRLWATRQAMLGQVHEVPEGWLIFVAEQEELYVRVQNGFRKVQLEARTPLGGGGSGGGGSGGGGSQDSTSDLIPAPPLSKVPLQQNFQDNQFHGKWYVVGQAGNIRLREDKDPIKMMATIYELKEDKSYDVTMVKFDDKKCMYDIWTFVPGSQPGEFTLGKIKSFPGHTSSLVRVVSTNYNQHAMVFFKFVFQNREEFYITLYGRTKELTSELKENFIRFSKSLGLPENHIVFPVPIDQCIDGGGSGGAPEQKLISEEDLGSHHHHHHHHHH |
| 6.62 | 0.71 | 5.99e-05 | 84000 | 4.08 | – | – | 0.69 | 2.98 | 0.1 | 1.3 | bispecific multimeric protein SEQ ID NO: 55 (designed binder) QDSTSDLIPAPPLSKVPLQQNFQDNQFQGKWYVVGRAGNVGLREDKDPPKMWATIYELKEDKSYDVTNVRFARKKCTYSIGTFVPGSQPGEFTLGQIKSEPGGTANLVRVVSTNYNQHAMVFFKEVYQNREIFFIILYGRTKELTSELKENFIRFSKSLGLPENHIVFPVPIDQCIDGGGGGSGGGGSGGGGSGVRLWATRQAMLGQVHEVPEGWLIFVAEQEELYVRVQNGFRKVQLEARTPLGGGGSGGGGSGGGGSQDSTSDLIPAPPLSKVPLQQNFQDNQFHGKWYVVGQAGNIRLREDKDPIKMMATIYELKEDKSYDVTMVKFDDKKCMYDIWTFVPGSQPGEFTLGKIKSFPGHTSSLVRVVSTNYNQHAMVFFKFVFQNREEFYITLYGRTKELTSELKENFIRFSKSLGLPENHIVFPVPIDQCIDGGGSGGAPEQKLISEEDLGSHHHHHHHHHH |
